Ki, fold improvement of binding over wrFh and EC50, cAMP in B16-F1 cells data for 31 molecules are collected here from patent publication US20170313756A1.

Where two headings read alike, the source gives them in different places. [ ]: non-standard residue; d: D form. The star is where a group is joined. dCha = N[C@H](CC1CCCCC1)C(=O)O; NH(CH2)3Ph = c1ccc(CCCN*)cc1

The target in assay [1] is melanocortin 1 receptor (MC1R) (UniProt Q01726). In words: 125I-NDP-MSH competition, HEK293 membranes.
Assay [2] concerns the target melanocortin 3 receptor (MC3R) (UniProt P41968). In words: 125I-NDP-MSH competition, HEK293 membranes.
Assay [3] has as its target melanocortin 4 receptor (MC4R) (UniProt P32245). Put plainly: 125I-NDP-MSH competition, HEK293 membranes.
Assay [4] concerns the target melanocortin 1 receptor (MC1R) (UniProt Q01726). Put plainly: 125I-NDP-MSH competition, HEK293 membranes. This is another data set of the same source.
The target of assay [5] is melanocortin 5 receptor (MC5R) (UniProt P33032). Put plainly: 125I-NDP-MSH competition, HEK293 membranes.
melanocortin 5 receptor (MC5R), sequence (P33032 whole entry): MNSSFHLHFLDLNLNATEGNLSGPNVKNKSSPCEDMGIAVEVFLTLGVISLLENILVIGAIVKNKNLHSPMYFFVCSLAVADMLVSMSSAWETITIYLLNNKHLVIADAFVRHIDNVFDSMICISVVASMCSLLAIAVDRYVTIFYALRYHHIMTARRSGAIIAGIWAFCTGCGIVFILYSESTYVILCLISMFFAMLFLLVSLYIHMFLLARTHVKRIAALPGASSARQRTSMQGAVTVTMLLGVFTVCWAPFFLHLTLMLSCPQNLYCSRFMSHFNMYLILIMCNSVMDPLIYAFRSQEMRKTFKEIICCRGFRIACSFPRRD
The target of assay [6] is mouse MC1R (on murine B16-F1 melanoma cells) (mouse) (UniProt Q01727). Put plainly: cell-based or functional assay.
mouse MC1R (on murine B16-F1 melanoma cells) (mouse), sequence (Q01727 whole entry): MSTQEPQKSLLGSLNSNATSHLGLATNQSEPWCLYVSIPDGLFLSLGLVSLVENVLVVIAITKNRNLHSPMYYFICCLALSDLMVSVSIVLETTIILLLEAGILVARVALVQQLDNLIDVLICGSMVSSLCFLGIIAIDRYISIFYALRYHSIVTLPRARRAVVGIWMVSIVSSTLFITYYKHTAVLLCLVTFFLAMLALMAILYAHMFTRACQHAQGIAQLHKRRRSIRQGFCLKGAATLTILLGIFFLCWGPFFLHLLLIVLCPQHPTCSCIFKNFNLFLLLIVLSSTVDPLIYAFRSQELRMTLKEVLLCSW

For orientation: Ki means the dissociation constant of the complex between target and ligand, obtained from inhibition or displacement. Low readings indicate tighter binding, high ones weaker binding.

melanocortin 1 receptor (MC1R), sequence (Q01726 whole entry): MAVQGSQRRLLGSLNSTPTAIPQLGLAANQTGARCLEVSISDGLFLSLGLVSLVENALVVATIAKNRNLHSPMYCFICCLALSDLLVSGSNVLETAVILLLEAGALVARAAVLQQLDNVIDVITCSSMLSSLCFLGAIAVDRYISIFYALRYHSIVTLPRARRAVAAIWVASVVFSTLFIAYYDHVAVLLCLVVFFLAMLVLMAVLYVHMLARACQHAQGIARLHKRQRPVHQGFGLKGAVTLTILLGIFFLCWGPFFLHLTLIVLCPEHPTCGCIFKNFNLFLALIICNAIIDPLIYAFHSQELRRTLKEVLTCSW
melanocortin 3 receptor (MC3R), sequence (P41968 whole entry): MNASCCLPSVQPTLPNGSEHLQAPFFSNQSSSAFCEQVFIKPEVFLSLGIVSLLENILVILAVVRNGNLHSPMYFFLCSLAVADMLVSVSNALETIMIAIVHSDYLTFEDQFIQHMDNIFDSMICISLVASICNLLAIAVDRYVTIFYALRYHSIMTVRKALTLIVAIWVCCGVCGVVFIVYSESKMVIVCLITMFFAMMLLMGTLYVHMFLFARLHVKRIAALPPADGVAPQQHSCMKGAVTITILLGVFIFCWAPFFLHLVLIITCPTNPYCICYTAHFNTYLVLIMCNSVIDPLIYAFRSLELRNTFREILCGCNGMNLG
melanocortin 4 receptor (MC4R), sequence (P32245 whole entry): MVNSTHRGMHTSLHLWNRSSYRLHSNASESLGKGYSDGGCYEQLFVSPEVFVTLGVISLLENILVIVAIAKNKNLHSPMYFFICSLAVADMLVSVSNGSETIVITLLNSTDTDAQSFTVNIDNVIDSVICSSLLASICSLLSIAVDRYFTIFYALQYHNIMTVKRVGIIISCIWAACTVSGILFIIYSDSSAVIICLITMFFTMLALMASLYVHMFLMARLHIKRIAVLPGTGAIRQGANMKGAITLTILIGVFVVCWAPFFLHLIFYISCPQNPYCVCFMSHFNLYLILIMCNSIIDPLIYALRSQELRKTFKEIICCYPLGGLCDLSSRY

B1: peptide 862-b (peptide)
peptide: VPKGFRFHEMSYS
modifications: N-terminal acetyl (Ac); C-terminal amide; D-isomers at all residues except Gly 4
The molecule B1 registered a Ki in assay [1] of 128 nM.

B2: peptide 867 (peptide)
peptide: VPKGWRXHEMSYS
modifications: N-terminal acetyl (Ac); C-terminal amide; 3-pyridyl-D-Alanine at 7; D-isomers at all residues except Gly 4
Regarding B2, in assay [1], the Ki came to 480 nM. Against the preceding molecule, the Ki is about 3.8-fold higher.

B3: peptide 873 (peptide)
peptide: VPKGWRFWEMSYS
modifications: N-terminal acetyl (Ac); C-terminal amide; D-isomers at all residues except Gly 4
In assay [1], B3 displayed a Ki of 1900 nM.

B4: peptide 872 (peptide)
peptide: VPKGWRFREMSYS
modifications: N-terminal acetyl (Ac); C-terminal amide; D-isomers at all residues except Gly 4
With B4, in assay [1], the Ki was determined as 13.5 nM.

B5: peptide 879 (peptide)
peptide: VPKGWRFHEKSYS
modifications: N-terminal acetyl (Ac); C-terminal amide; D-isomers at all residues except Gly 4
In the case of B5, the Ki in assay [1] amounted to 832 nM.

B6: peptide 857 (peptide)
peptide: VPXGWRFHEMSYS
modifications: N-terminal acetyl (Ac); C-terminal amide; D-Ornithine at 3; D-isomers at all residues except Gly 4
B6 gave an inhibition constant (Ki) in assay [1] of 3 nM.

B7: peptide 807 (peptide)
peptide: VPKGWRFHEASYS
modifications: N-terminal acetyl (Ac); C-terminal amide; D-isomers at all residues except Gly 4
For the molecule B7, the Ki in assay [1] is 1400 nM.

B8: peptide 877 (peptide)
peptide: VPKGWRFHEXSYS
modifications: N-terminal acetyl (Ac); C-terminal amide; α-methyl-D-Met at 10; D-isomers at all residues except Gly 4
Regarding B8, the Ki in assay [1] is 282 nM.

B9: peptide 808 (peptide)
peptide: VPKGWRFHAMSYS
modifications: N-terminal acetyl (Ac); C-terminal amide; D-isomers at all residues except Gly 4
As for B9, in assay [1], the Ki worked out at 2.5 nM.

B10: peptide 858 (peptide)
peptide: VPXGWRFHEMSYS
modifications: N-terminal acetyl (Ac); C-terminal amide; D-Norleucine at 3; D-isomers at all residues except Gly 4
In turn, B10 came in with a Ki in assay [1] of 18 nM.

B11: peptide 880 (peptide)
peptide: Ac-[dV][dP][dK]G[dW][dR]F[dH][dS][dI][dI][dS][dS]-NH2
SMILES: CC[C@@H](C)[C@@H](NC(=O)[C@@H](CO)NC(=O)[C@@H](Cc1c[nH]cn1)NC(=O)[C@H](Cc1ccccc1)NC(=O)[C@@H](CCCNC(=N)N)NC(=O)[C@@H](Cc1c[nH]c2ccccc12)NC(=O)CNC(=O)[C@@H](CCCCN)NC(=O)[C@H]1CCCN1C(=O)[C@H](NC(C)=O)C(C)C)C(=O)N[C@@H](C(=O)N[C@H](CO)C(=O)N[C@H](CO)C(N)=O)[C@H](C)CC
B11: the Ki was determined as 18000 nM in assay [2], 10000 nM in assay [3] and 1.8 nM in assay [1].

B12: peptide 847 (peptide)
peptide: H-[dV][dP][dK]G[dW][dR][dF][dH]-{NH(CH2)3Ph}
SMILES: CC(C)[C@@H](N)C(=O)N1CCC[C@@H]1C(=O)N[C@H](CCCCN)C(=O)NCC(=O)N[C@H](Cc1c[nH]c2ccccc12)C(=O)N[C@H](CCCNC(=N)N)C(=O)N[C@H](Cc1ccccc1)C(=O)N[C@H](Cc1c[nH]cn1)C(=O)NCCCc1ccccc1
Consider B12, for which the Ki in assay [1] was 104 nM; in assay [4] it was 150 nM.

On to Ac-[dW][dR]F[dH]-{1,6‑diaminohexane-stearyl} [peptide 882], for which, in assay [1], the Ki was 120 nM. For the same molecule, the fold improvement of binding over wrFh in assay [4] is more than 250 fold.

B13: peptide 878 (peptide)
peptide: VPKGWRFHEXSYS
modifications: N-terminal acetyl (Ac); C-terminal amide; D-buthionine at 10; D-isomers at all residues except Gly 4
In the case of B13, the Ki in assay [5] turned out to be 30000 nM; in assay [2] it was 40000 nM; in assay [1], 2.3 nM.

B14: peptide 812 (peptide)
peptide: VPKGARFHEMSYS
modifications: N-terminal acetyl (Ac); C-terminal amide; D-isomers at all residues except Gly 4
Regarding B14, in assay [1], the Ki was found to be 3000 nM. In other words, the single-digit micromolar range.

B15: peptide 871 (peptide)
peptide: VPKGWRXHEMSYS
modifications: N-terminal acetyl (Ac); C-terminal amide; 4-Nitro-D-Phe at 7; D-isomers at all residues except Gly 4
For B15, the Ki in assay [1] is 324 nM.

B16: peptide 890 (peptide)
peptide: VPKGWRXHEXSYS
modifications: N-terminal acetyl (Ac); C-terminal amide; D-Cha at 7; D-buthionine at 10; D-isomers at all residues except Gly 4
As for B16, the Ki in assay [5] turned out to be 4500 nM; in assay [2] it was 15000 nM; in assay [3], 14000 nM; in assay [1], 1.9 nM.

B17: peptide 865 (peptide)
peptide: VPKGWHFHEMSYS
modifications: N-terminal acetyl (Ac); C-terminal amide; D-isomers at all residues except Gly 4
For B17, the Ki in assay [1] was 2300 nM. This lies in the single-digit micromolar range.

B18: peptide 886 (peptide)
peptide: Ac-[dV][dP][dK]G[dW][dR][dF][dH][dS][dI][dI][dS][dS]-NH2
SMILES: CC[C@@H](C)[C@@H](NC(=O)[C@@H](CO)NC(=O)[C@@H](Cc1c[nH]cn1)NC(=O)[C@@H](Cc1ccccc1)NC(=O)[C@@H](CCCNC(=N)N)NC(=O)[C@@H](Cc1c[nH]c2ccccc12)NC(=O)CNC(=O)[C@@H](CCCCN)NC(=O)[C@H]1CCCN1C(=O)[C@H](NC(C)=O)C(C)C)C(=O)N[C@@H](C(=O)N[C@H](CO)C(=O)N[C@H](CO)C(N)=O)[C@H](C)CC
Turning to B18, the Ki is 20000 nM in assay [5], 19000 nM in assay [2], 10000 nM in assay [3] and 1 nM in assay [1].

B19: peptide 811 (peptide)
peptide: VPKGWAFHEMSYS
modifications: N-terminal acetyl (Ac); C-terminal amide; D-isomers at all residues except Gly 4
B19 gave a Ki in assay [1] of 13000 nM.

B20: peptide 861 (peptide)
peptide: VPKGXRFHEMSYS
modifications: N-terminal acetyl (Ac); C-terminal amide; 5-methoxy-D-Trp at 5; D-isomers at all residues except Gly 4
The molecule B20 had a Ki in assay [1] of 75 nM.

B21: peptide 859 (peptide)
peptide: VPKGXRFHEMSYS
modifications: N-terminal acetyl (Ac); C-terminal amide; 3-benzothienyl-D-Alanine at 5; D-isomers at all residues except Gly 4
B21 returned a Ki in assay [1] of 206 nM.

B22: RI α-MSH analog 891 (peptide)
peptide: Ac-[dV][dP][dK]G[dW][dR][dCha][dH][dS][dI][dI][dS][dS]-NH2
SMILES: CC[C@@H](C)[C@@H](NC(=O)[C@@H](CO)NC(=O)[C@@H](Cc1c[nH]cn1)NC(=O)[C@@H](CC1CCCCC1)NC(=O)[C@@H](CCCNC(=N)N)NC(=O)[C@@H](Cc1c[nH]c2ccccc12)NC(=O)CNC(=O)[C@@H](CCCCN)NC(=O)[C@H]1CCCN1C(=O)[C@H](NC(C)=O)C(C)C)C(=O)N[C@@H](C(=O)N[C@H](CO)C(=O)N[C@H](CO)C(N)=O)[C@H](C)CC
As to B22, the Ki in assay [5] was 2500 nM; in assay [2], 8000 nM; in assay [3] it was 3200 nM; in assay [1], 0.43 nM. Moreover, the EC50, cAMP in B16-F1 cells in assay [6] came to 81 nM.

B23: peptide 868 (peptide)
peptide: VPKGWRXHEMSYS
modifications: N-terminal acetyl (Ac); C-terminal amide; 2-thienyl-D-Alanine at 7; D-isomers at all residues except Gly 4
Consider B23, for which the Ki in assay [1] is 5.4 nM.

B24: peptide 870 (peptide)
peptide: VPKGWRWHEMSYS
modifications: N-terminal acetyl (Ac); C-terminal amide; D-isomers at all residues except Gly 4
Molecule B24 displayed a Ki in assay [1] of 2500 nM.

B25: peptide 809 (peptide)
peptide: VPKGWRFAEMSYS
modifications: N-terminal acetyl (Ac); C-terminal amide; D-isomers at all residues except Gly 4
As to B25, the Ki in assay [1] amounted to 1200 nM. Compared with the last molecule, the Ki is about 2.1-fold lower.

For Ac-[dW][dR]F[dH]-NH2 [peptide 883], the inhibition constant Ki in assay [4] is more than 30000 nM.

B26: peptide 860 (peptide)
peptide: VPKGXRFHEMSYS
modifications: N-terminal acetyl (Ac); C-terminal amide; 5-hydroxy-D-Trp at 5; D-isomers at all residues except Gly 4
The molecule B26 gave a Ki in assay [1] of 96 nM. This lies in the double-digit nanomolar range.

B27: peptide 869 (peptide)
peptide: VPKGWRXHEMSYS
modifications: N-terminal acetyl (Ac); C-terminal amide; D-cyclohexylalanine (D-Cha) at 7; D-isomers at all residues except Gly 4
In the case of B27, the values for the Ki in assay [5] and in assay [1] were 25000 nM and 2.2 nM, respectively.

B28: peptide 875 (peptide)
peptide: VPKGWRFHDMSYS
modifications: N-terminal acetyl (Ac); C-terminal amide; D-isomers at all residues except Gly 4
In assay [1], B28 gave a Ki of 400 nM. This lies in the sub-micromolar range.

B29: peptide 847int (peptide)
peptide: H-[dV][dP][dK]G[dW][dR][dF][dH]-OH
SMILES: CC(C)[C@@H](N)C(=O)N1CCC[C@@H]1C(=O)N[C@H](CCCCN)C(=O)NCC(=O)N[C@H](Cc1c[nH]c2ccccc12)C(=O)N[C@H](CCCNC(=N)N)C(=O)N[C@H](Cc1ccccc1)C(=O)N[C@H](Cc1c[nH]cn1)C(=O)O
The molecule B29 had a Ki in assay [1] of 150 nM.
